Assay [1] deals with full-length wild type human ApoE3 recombinant protein (His-tagged) (human) (UniProt P02649). As to the kind of experiment: ELISA, negative control. In general terms: An ELISA detects its analyte on a solid surface through an enzyme-linked reagent.
Assay [2] concerns the target wild type ApoE peptide KLH-…-CONH2 (human). The experiment in a line: ELISA, negative control.
Assay [3] addresses full-length ApoE3ch (ApoE3 Christchurch R136S) mutant recombinant protein (His-tagged) (human) (UniProt P02649). As to the kind of experiment: ELISA, negative control.
The target in assay [4] is ApoEch peptide KLH-…-CONH2 (human). As to the kind of experiment: ELISA, negative control.
Assay [5] deals with T1, full-length ApoE3ch (ApoE3 Christchurch R136S) mutant recombinant protein (His-tagged) (human, UniProt P02649 19-317).
T1 construct: also called ApoE3ch full length protein; APOE3ch Mutant; not shown: histidine tag
The experiment in a line: ELISA, His-tagged ApoE protein on Ni-NTA plate, antibody diluted 1:1000 to 1:32000, anti-mouse HRP, absorbance 450 nm; x axis (printed 'Antibody Concentation') counts the dilution factor. As for the experimental part: (§1) ELISA: Antibodies designed against the heparin-binding domain of ApoE were tested for their affinity to ApoE3 and ApoEch mutant recombinant proteins using ELISA. The Ni-NTA HisSorb Plates (Qiagen) were washed 3 times with wash buffer 1 (DY008). The ApoE recombinant proteins were suspended in buffer (DY008) to give a final concentration of 0.5 μg/ml. The plates were incubated with 200 μl of ApoE recombinant proteins for 2 hours, and washed 5 times with 1x wash buffer (DY008). The plates were then incubated with antibodies at a serial dilution of from 1:1,000 to 1:32,000 for overnight at 4° C. The plate was then washed 5 times in 1X wash buffer (DY008), and incubated with anti-mouse HRP (Abcam; ab97046, 1:10,000) for 45 minutes, followed by 5 washes in 1x wash buffer to ensure complete removal of unbound secondary antibody. The sulfuric acid from the ELISA reagent kit (DY008) was warmed to 37° C. 100 μl of tetramethylbenzidine (Millipore) was added to initiate the detection phase of the reaction. After a 5-min incubation, sulfuric acid was added to terminate the reaction. The plate was then read using Synery 2 microplate reader (BioTek Instrument. Inc) and the Gen5 version1.11 software).
(§2) To generate monoclonal antibodies against the heparin-binding domain of ApoE, mice were immunized using the wild type ApoE peptide: KLH-[…]-CONH₂ (SEQ ID NO:54), and the ApoEch peptide: KLH-[…]-CONH₂ (SEQ ID NO:55). A cysteine residue was added at the N-terminus to facilitate conjugation of the peptides. Cell fusions were obtained from positive clones and cell supernatants tested for activity against the wild type and mutant peptides and proteins. Seven antibodies generated were analyzed by ELISA as examples, as described in the materials and methods section.

Assay [6] addresses T2, C-terminal domain ApoE3ch mutant recombinant protein (amino acids 125 to 299) (human, UniProt P02649 143-317).
T2 construct: also called C-terminal ApoE3ch mutant protein; APOE3 mutant c terminal protein; not shown: histidine tag
T2 chain: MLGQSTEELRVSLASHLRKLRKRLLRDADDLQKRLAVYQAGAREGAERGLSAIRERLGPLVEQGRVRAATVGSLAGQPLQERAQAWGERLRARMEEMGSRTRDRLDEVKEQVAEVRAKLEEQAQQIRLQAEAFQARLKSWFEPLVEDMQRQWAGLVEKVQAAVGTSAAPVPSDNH
The assay is described as above. Here is the method:
as §1, §2

In assay [7] the target is T3, ApoEch peptide KLH-CTEELRVSLASHLRK-CONH2 (human, not fully specified; C-terminal amide (CONH2); printed with KLH on the added N-terminal cysteine).
T3 construct: also called Mut peptide; mutant ApoE peptide
T3 peptide: CTEELRVSLASHLRK
The experiment in a line: ELISA of the monoclonal antibody purified from cloned hybridoma, O.D. 450 nm against antibody concentration (ng/mL, log axis).

In assay [8] the target is T4, C-terminal wild type ApoE3 recombinant protein (human, UniProt P02649 143-317, limits assumed).
T4 construct: also called C-terminal form of wild type ApoE3; c-terminus of the APOE3WT protein; not shown: histidine tag
The experiment in a line: ELISA, His-tagged ApoE protein on Ni-NTA plate, antibody diluted 1:1000 to 1:32000, absorbance 450 nm against dilution factor. As for the experimental part:
Antibodies designed against the heparin binding domain of APOE were tested for affinity to APOE3 and APOEch mutant recombinant protein using an ELISA. The Ni-NTA HisSorb Plates (Qiagen) plates were washed 3 times with wash buffer 1 (DY008), the APOE recombinant proteins were suspended in buffer (DY008) to give a final concentration of 0.5 μg/ml. The plates were incubated with 200 μl for 2 hours. The plate was then washed 5 times with 1x wash buffer (DY008), the plates were then incubated with antibodies in a serial dilution series from 1:1000 to 1:32000 and incubated overnight at 4° C. The plate is then washed 5 times in 1X wash buffer (DY008). The plates were then incubated with Anti-mouse HRP (Abcam; ab97046) (1:10000) for 45 minutes. The plate was then washed 5 times in 1x wash buffer to ensure complete removal of unbound secondary antibody. The Sulfuric acid from the ELISA reagent kit (DY008) was warmed to 37° C. prior to addition of 100 μl of tetramethylbenzidine (Millipore) initiating the detection phase of the reaction. […] The plate was then read using Synery 2 microplate reader (BioTek Instrument. Inc) and the Gen5 version1.11 software).
The 19G10-2 antibody was further evaluated using Heparin-Affinity chromatography, Western Blotting, Quantitative ELISA for chromatography fractions, and ELISA for binding analyses. […]

Assay [9] has as its target T5, bovine serum albumin (BSA) (bovine, UniProt P02769 25-607). The experiment in a line: ELISA, BSA as control coat, antibody diluted 1:1000 to 1:32000, absorbance 450 nm; x axis counts the dilution factor. Here is the method:
as §1, with “100 μl of tetramethylbenzidine (Millipore) was added to initiate the detection phase of the reaction. After a 5-min incubation, sulfuric acid was added to terminate the reaction.” left out
To generate monoclonal antibodies against the heparin-binding domain of ApoE, mice were immunized using the wild type ApoE peptide: KLH-[…]-CONH₂ (SEQ ID NO:54), and the ApoEch peptide: KLH-[…]-CONH₂ (SEQ ID NO:55). […] Seven antibodies generated were analyzed by ELISA as examples, as described in the materials and methods section.

In assay [10] the target is T3, ApoEch peptide KLH-CTEELRVSLASHLRK-CONH2. As to the kind of experiment: ELISA of the monoclonal antibody purified from cloned hybridoma, O.D. 450 nm against antibody concentration (ng/mL, log axis).
Assay [11] deals with T1, full-length ApoE3ch (ApoE3 Christchurch …). As to the kind of experiment: ELISA, parental hybridoma clone.
In assay [12] the target is T6, full-length wild type human ApoE3 recombinant protein (His-tagged) (human, UniProt P02649 19-317).
T6 construct: Recombinant protein from Innovagen; also called ApoE3 WT full-length protein; APOE3 WT; not shown: histidine tag
The experiment in a line: ELISA, parental hybridoma clone.

Assay [13] deals with T3, ApoEch peptide KLH-CTEELRVSLASHLRK-CONH2. The experiment in a line: ELISA, parental hybridoma clone.
For assay [14], the target named is T7, wild type ApoE peptide KLH-CTEELRVRLASHLRK-CONH2 (human, not fully specified; C-terminal amide (CONH2); printed with KLH on the added N-terminal cysteine).
T7 construct: also called WT peptide; ApoE3 WT peptide
T7 peptide: CTEELRVRLASHLRK
As to the kind of experiment: ELISA, parental hybridoma clone.

Assay [15] addresses T1, full-length ApoE3ch (ApoE3 Christchurch …). As to the kind of experiment: ELISA subclones analysis, 7C11-1 serum on mutant protein, O.D. 450 nm against dilution factor.
Assay [16] concerns the target T5, bovine serum albumin (BSA). As to the kind of experiment: ELISA, BSA as control coat, antibody diluted 1:1000 to 1:32000, absorbance 450 nm; x axis counts the dilution factor. This is another data set of the same source.

The source of these data is patent US20240287165A1 (GENERAL HOSPITAL, published 2024).

Where a chain is given by its changes, count along the chain named. Like-named read-outs stand apart in the source and are kept apart here.

T5 sequence (P02769 25-607 limits assumed): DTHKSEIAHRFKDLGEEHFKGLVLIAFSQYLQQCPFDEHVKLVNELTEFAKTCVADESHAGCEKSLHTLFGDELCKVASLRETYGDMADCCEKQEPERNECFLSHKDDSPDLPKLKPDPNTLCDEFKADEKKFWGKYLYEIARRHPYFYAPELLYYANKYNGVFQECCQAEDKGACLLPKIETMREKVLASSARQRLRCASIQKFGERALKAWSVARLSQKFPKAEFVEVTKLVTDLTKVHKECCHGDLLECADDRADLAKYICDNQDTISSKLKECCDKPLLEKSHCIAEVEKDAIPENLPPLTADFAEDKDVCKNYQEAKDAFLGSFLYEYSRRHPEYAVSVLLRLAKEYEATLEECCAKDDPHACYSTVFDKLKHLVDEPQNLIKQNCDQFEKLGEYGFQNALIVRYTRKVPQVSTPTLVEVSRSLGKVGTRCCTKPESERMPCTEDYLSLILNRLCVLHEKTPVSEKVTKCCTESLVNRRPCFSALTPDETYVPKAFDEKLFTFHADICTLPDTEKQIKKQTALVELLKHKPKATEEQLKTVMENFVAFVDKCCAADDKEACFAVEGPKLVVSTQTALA

On to Neg. ctrl (Table 6), for which the absorbance (ELISA) in [1] was found to be 0.051 absorbance; in [2] it was 0.068 absorbance; in [3], 0.048 absorbance; in assay [4] it was 0.056 absorbance.

B1: antibody 19G10-2 (antibody, V domains shown)
VH: EVQLQQSGAELVRPGALVKLSCKASGFNIKDYHMHWVKERPEQGLEWIGWIDPENGNTMYDPKFQGKASITADTSSNTAYLQLSSLTSEDTAVYYCVRGTARASFDYWGQGTTLTVSS
VL: DIVLTQSPASLAVSLGQRATISCKASQSVDYDGDSYMNWYQQKSGQPPKLLIYAASNLESGIPARFSGSGSGTDFTLNIHPVEEEDAATYYCQQSNVDPWTFGGGTKLEIK
notes: Tested as serum, as hybridoma supernatant and as purified monoclonal; also called 19G10-2 antibody serum; monoclonal antibody hybridoma supernatant 19G10-2
For the molecule B1, the binding result in assay [5] was “binds”; in assay [6], “binds”; in assay [7] it was “binds”; in [8], “no binding (tested: 1:1000 dilution)”; in assay [9], “no binding (tested: 1:1000 dilution)”.

B2: antibody 25F1-2 (antibody, V domains shown)
VH: B1 VH with L20W, M34I, E39Q, E46D, N55I, G56D, N57K, M59L, S69R, V97A
VL: B1 VL with S35T, S44P, A54T, E85V, V97E
notes: also called 25F1-2 antibody serum; monoclonal antibody hybridoma supernatant 25F1-2
For the molecule B2, the binding result in assay [5] is given as “binds”; in assay [6] it was “binds”; in assay [10], “binds”; in [9], “no binding (tested: 1:1000 dilution)”.

B3: antibody 7C11-1 (antibody, V domains shown)
VH: EVKLVESGGGLVQPGGSLKLSCAASGFTFSRYTMSWVRQTPEKRLEWVAKIRNVGGITYYPDTVKGRFTISRDNAKNTLYLQMSSLKSEDTAMYYCARHYYGSEDYFDYWGQGTTLTVSS
VL: B1 VL with I2N, S44P, L50V, L51F, D74N, V97E
notes: The limits without signal peptide (20-139, 21-131) come from CLM-00005; also called 7C11-1 serum
For B3, the “absorbance (ELISA)” value was found to be 0.055 absorbance in assay [11], 0.689 absorbance in [12], 0.058 absorbance in assay [13] and 1.28 absorbance in [14]. The binding result in assay [15] is recorded as “no binding (tested: 1:10 dilution)”.

B4: mouse antibody 1343ab (antibody, mouse IgG1, kappa, V domains shown)
VH: EVQLQQSGAELVRPGALVKLSCKASGFNIKDYHLHWVKQRPEQGLEWIGWIDPENGNVIYDPKFQGKATMTVVTSSNTAYLQLRSLTSEDTAVYFCTRGTARASFDYWGQGTSLTVSS
VL: DIVLTQSPASLAVSLGQRATISCKASQSVDYDGENYMNWYQQKPGQSPKLLIYVASNLESGIPARFSGSGSGTDFTLNIHPVEEEDAATYYCQQSNLDPWTFGGGTKLEIKR
modifications: N-linked glycosylation detected on heavy chain constant region N at 292; loss of C-terminal lysine observed
notes: also called 23B2
In the case of B4, in assay [16], the binding result is on record as “no binding (tested: 1:1000 dilution)”.
